In patent US20130212721:
Residue numbers refer to the chain shown, from its start.

Key:
[1] = system: T1, human FEAT protein (faint expression in normal tissues, aberrant overexpression in tumors)
T1 sequence: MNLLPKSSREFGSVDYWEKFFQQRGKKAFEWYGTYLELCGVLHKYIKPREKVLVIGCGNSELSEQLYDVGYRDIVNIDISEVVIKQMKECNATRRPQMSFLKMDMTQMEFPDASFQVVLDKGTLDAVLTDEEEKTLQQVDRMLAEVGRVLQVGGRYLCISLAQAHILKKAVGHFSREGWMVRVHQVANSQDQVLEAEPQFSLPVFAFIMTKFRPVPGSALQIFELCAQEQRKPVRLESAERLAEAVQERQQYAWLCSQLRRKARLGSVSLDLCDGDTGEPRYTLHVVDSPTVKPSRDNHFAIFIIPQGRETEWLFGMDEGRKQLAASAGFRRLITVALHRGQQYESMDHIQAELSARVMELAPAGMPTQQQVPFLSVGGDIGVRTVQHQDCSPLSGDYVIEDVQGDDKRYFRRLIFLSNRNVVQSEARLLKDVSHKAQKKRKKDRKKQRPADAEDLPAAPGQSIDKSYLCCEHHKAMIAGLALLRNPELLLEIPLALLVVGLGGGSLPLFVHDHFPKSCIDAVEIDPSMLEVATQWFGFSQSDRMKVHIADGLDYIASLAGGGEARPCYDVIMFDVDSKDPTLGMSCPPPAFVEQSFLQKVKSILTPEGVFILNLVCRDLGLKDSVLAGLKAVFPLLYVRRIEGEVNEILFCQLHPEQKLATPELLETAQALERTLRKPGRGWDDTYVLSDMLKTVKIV

[2] = system: T2, human FEAT D274A/D288A mutant
T2 sequence: T1 sequence with D274A, D288A

Substance: His-tagged recombinant caspase-6
- cleavage of in vitro transcribed/translated [35S]-FEAT (SDS-PAGE, autoradiography) [1]: FEAT transcribed/translated in vitro was cleaved by caspase-3, but not by caspase-6

Substance: His-tagged recombinant caspase-3
- cleavage of in vitro transcribed/translated [35S]-FEAT (SDS-PAGE, autoradiography) [1]: FEAT transcribed/translated in vitro was cleaved by caspase-3, but not by caspase-6
- caspase-3 cleavage of FEAT with Asp-to-Ala mutations in the cleavage sites [2]: are resistant to caspase-3 cleavage
